T1: NLpoly11S
T1 chain: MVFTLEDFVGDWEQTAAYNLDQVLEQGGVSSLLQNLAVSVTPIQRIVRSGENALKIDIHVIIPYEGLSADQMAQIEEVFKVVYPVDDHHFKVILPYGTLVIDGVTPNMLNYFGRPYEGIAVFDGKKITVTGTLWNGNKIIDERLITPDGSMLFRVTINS


Target: T1, NLpoly11S
Experiment: luminescence complementation titration, one-site specific binding fit

Binder | Bmax | Kd
VTGYRLFKEES (modifications not checked) [array2.9] | 1450 | 3.86 µM
VTGYRLFKQAS (modifications not checked) [array2.5] | 31000 | 1.95 µM
VEGYRLFQEIS (modifications not checked) [array2.70] | 29200 | 230 µM
VEGYRLFKKAS (modifications not checked) [array2.56] | 15900 | 0.641 µM
VEGYRLFEQES (modifications not checked) [array2.78] | 39400 | 252 µM
VEGYRLFKQIS (modifications not checked) [array2.58] | 21500 | 2.09 µM
VEGYRLFQQAS (modifications not checked) [array2.68] | 3750 | 20 µM
VTGYRLFKQES (modifications not checked) [array2.6] | 5010 | 1.35 µM
VEGYRLFEKES (modifications not checked) [array2.75] | 1170 | 2.97 µM
VEGYRLFKQES (modifications not checked) [array2.60] | 4350 | 10.6 µM
VTGYRLFKKIS (modifications not checked) [array2.1] | 135000 | 0.0133 µM
VEGYRLFKQAS (modifications not checked) [array2.59] | 2300 | 2.09 µM
VEGYRLFKKAL (modifications not checked) [array2.83] | 20800 | 1.59 µM
VEGYRLFQKES (modifications not checked) [array2.66] | 3490 | 2.87 µM
VEGYRLFEQAS (modifications not checked) [array2.77] | 26900 | 48.3 µM
VTGYRLFKEAS (modifications not checked) [array2.8] | 3930 | 2.57 µM

Binder | Bmax | Kd
VEGYRLFQQIS (modifications not checked) [array2.67] | 5220 | 8.14 µM
VEGYRLFKEIS (modifications not checked) [array2.61] | 5460 | 14.4 µM
VEGYRLFKEAS (modifications not checked) [array2.62] | 2380 | 22.1 µM
VEGYRLFQEAS (modifications not checked) [array2.71] | 44900 | 24 µM
VEGYRLFKEES (modifications not checked) [array2.63] | 17300 | 220 µM
VEGYRLFKKIS (modifications not checked) [array2.55] | 42400 | 0.078 µM
VEGYRLFQKIS (modifications not checked) [array2.64] | 36500 | 0.586 µM
VEGYRLFQKAS (modifications not checked) [array2.65] | 10600 | 1.93 µM
VEGYRLFEKIS (modifications not checked) [array2.73] | 22500 | 2.15 µM
VEGYRLFEQIS (modifications not checked) [array2.76] | 18000 | 52.8 µM
VEGYRLFKKES (modifications not checked) [array2.57] | 3370 | 0.891 µM
VTGYRLFKEIS (modifications not checked) [array2.7] | 32000 | 4.44 µM
VEGYRLFKKIL (modifications not checked) [array2.82] | 43400 | 0.563 µM
VEGYRLFEKAS (modifications not checked) [array2.74] | 3810 | 4.14 µM
VEGYRLFEEAS (modifications not checked) [array2.80] | 383000 | 1420 µM

Now from value to binder:

Bmax | Kd | Binder
2700 | 99.9 µM | VEGYRLFQEAL (modifications not checked) [array2.98]
50500 | 2.08 µM | VEGYRLFQKIL (modifications not checked) [array2.91]
12200 | 101 µM | VEGYRLFKEEL (modifications not checked) [array2.90]
31400 | 10.3 µM | VEGYRLFKQIL (modifications not checked) [array2.85]
2280 | 9.39 µM | VEGYRLFQQIL (modifications not checked) [array2.94]
2300 | 2.27 µM | VEGYRLFKQAL (modifications not checked) [array2.86]
5570 | 42.4 µM | VEGYRLFKEAL (modifications not checked) [array2.89]
6370 | 12.6 µM | VEGYRLFEKAL (modifications not checked) [array2.101]
4090 | 1.69 µM | VEGYRLFQKEL (modifications not checked) [array2.93]
1790 | 12.6 µM | VEGYRLFKQEL (modifications not checked) [array2.87]
12300 | 2.02 µM | VEGYRLFQKAL (modifications not checked) [array2.92]
35000 | 10.6 µM | VEGYRLFEKIL (modifications not checked) [array2.100]
105000 | 99.4 µM | VEGYRLFQQEL (modifications not checked) [array2.96]
9830 | 17.8 µM | VEGYRLFKEIL (modifications not checked) [array2.88]
38200 | 18.8 µM | VEGYRLFQQAL (modifications not checked) [array2.95]
7830 | 1.41 µM | VEGYRLFKKEL (modifications not checked) [array2.84]

— US20200292534A1
